Measured values reported in publication PMC10716131 (2023).

Assays:
[1] = target: T1, DDB1:CRBN complex, full-length human CRBN (residues 1–442) with N-terminal biotinylated Avi-tag, co-expressed … (human, UniProt Q96SW2 1-442; Q16531 1-1140, biotin on the Avi-tag (BirA, 100% efficiency)); assay: SPR; pomalidomide 5 uM
[2] = target: T1, DDB1:CRBN complex, full-length human …; assay: SPR; pomalidomide
[3] = target: T1, DDB1:CRBN complex, full-length human …; assay: SPR; pomalidomide; remark: listed apart in the source
[4] = target: T1, DDB1:CRBN complex, full-length human …; assay: SPR; CC-220
[5] = target: T1, DDB1:CRBN complex, full-length human …; assay: SPR; CC-220; remark: listed apart in the source
[6] = target: T1, DDB1:CRBN complex, full-length human …; assay: SPR; CC-220 5 uM

T1 sequence (Q96SW2 whole entry, chain 1 of 2, the tested form may be a part): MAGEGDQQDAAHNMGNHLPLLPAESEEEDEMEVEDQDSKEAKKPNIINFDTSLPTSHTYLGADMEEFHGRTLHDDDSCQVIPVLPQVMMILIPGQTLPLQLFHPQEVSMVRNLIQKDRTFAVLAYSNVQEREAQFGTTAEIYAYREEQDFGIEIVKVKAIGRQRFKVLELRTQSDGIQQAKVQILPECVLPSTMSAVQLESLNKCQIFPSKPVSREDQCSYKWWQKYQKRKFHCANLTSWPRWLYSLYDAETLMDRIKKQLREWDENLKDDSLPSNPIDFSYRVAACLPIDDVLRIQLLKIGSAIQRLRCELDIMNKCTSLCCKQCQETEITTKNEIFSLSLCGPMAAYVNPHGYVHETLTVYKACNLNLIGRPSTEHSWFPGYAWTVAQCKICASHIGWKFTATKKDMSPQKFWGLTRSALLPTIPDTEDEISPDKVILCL
T1 sequence (Q16531 whole entry, chain 2 of 2, the tested form may be a part): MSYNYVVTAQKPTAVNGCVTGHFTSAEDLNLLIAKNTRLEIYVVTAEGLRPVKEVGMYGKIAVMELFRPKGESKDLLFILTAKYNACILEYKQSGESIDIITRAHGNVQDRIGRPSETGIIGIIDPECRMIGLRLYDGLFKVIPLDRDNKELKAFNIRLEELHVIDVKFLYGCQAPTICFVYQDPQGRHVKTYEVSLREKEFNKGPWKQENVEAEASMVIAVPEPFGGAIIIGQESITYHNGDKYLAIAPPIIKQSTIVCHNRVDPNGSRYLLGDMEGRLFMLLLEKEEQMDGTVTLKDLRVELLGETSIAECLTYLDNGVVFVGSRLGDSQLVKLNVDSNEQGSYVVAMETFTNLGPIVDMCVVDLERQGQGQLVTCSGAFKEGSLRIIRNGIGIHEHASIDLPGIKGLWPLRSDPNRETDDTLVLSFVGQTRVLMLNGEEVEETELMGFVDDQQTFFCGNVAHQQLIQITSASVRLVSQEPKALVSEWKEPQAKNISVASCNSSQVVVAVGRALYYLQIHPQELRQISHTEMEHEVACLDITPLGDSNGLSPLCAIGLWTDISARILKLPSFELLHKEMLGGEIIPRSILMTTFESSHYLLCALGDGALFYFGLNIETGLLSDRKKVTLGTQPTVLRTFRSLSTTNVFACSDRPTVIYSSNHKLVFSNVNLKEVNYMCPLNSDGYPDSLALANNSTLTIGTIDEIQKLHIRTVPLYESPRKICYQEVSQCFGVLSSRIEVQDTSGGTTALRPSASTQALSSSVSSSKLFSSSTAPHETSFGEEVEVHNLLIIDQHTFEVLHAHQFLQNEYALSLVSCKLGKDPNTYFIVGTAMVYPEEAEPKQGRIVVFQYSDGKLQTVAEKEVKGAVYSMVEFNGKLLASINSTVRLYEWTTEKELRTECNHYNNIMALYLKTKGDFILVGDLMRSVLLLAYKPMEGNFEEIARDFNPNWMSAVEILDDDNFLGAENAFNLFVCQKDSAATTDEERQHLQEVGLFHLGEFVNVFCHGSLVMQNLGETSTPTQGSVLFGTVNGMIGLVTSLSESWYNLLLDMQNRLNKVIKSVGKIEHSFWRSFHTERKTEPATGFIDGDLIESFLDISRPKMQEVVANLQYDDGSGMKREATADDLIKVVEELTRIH

B1: Human SALL4 ZF2(405–432) (domain or fragment)
chain: not shown
- Kd [1]: 67100 nM

B2: Human SALL4 ZF1-2(379–432) (domain or fragment)
chain: LYKHKCKYCSKVFGTDSSLQIHLRSHTGERPFVCSVCGHRFTTKGNLKVHFHRH
- Kd [2]: 2100 nM
- koff [3]: 0.26 s⁻¹
- koff [4]: 0.34 s⁻¹
- Kd [5]: 150000 nM

B3: Human SALL4 ZF1-2(370–454) (domain or fragment)
chain: DVKPKDEAALYKHKCKYCSKVFGTDSSLQIHLRSHTGERPFVCSVCGHRFTTKGNLKVHFHRHPQVKANPQLFAEFQDKVAAGNG
- Kd [2]: 60 nM
- koff [3]: 0.015 s⁻¹
- Kd [6]: 310 nM
- koff [4]: 0.042 s⁻¹
- Kd [1]: 60 nM
- Kd [5]: 280 nM

Binder: TGERPFVCSVCGHRFTTKGNLKVHFHRHPQVKANPQLFAEFQDKVAAGNG (domain or fragment) [Human SALL4 ZF2(405–454)]
- Kd [6]: 2100 nM
- Kd [1]: 700 nM

Binder: TGERPFVCSVCGHRFTTKGNLKVHFHRHPQVKA (domain or fragment) [Human SALL4 ZF2(405–437)]
- Kd [6]: 4000 nM
